Assay results: US20210309722A1

Target: GLP-1 receptor
Assay: cell-based or functional assay

native human GLP-1 (7-37) (from UniProt P01275 21-180) (peptide)
EC50, cAMP production (cAMP-inducible luciferase reporter) in HEK293 cells expressing GLP1R: 3.1 pM
